Laboratory results taken from paper PMC11921379, “TK2268 encodes the major aminotransferase involved in the conversion from oxaloacetic acid to aspartic acid in Thermococcus kodakarensis” (Applied and Environmental Microbiology, 2025).
Each block holds one molecule with its values, some of them ahead of it.

Key:
TK2268p (TK2268 protein) = biological target: T1, TK2268p (TK2268 protein) (Thermococcus kodakarensis, UniProt Q5JHU0); assay: initial velocity, HPLC after o-phthalaldehyde derivatization; substrate inhibition fit; type: biochemical; settings: substrate inhibition constant, second site (second substrate binding to enzyme-substrate complex), 20 µM PLP, 50 mM HEPES pH 7.5, 80°C
T1 construct: full-length, C-terminal His6-tag, overexpressed homologously in T. kodakarensis, His GraviTrap and gel filtration
From the text: (§1) initial velocity, HPLC after o-phthalaldehyde derivatization; substrate inhibition fit on TK2268p (TK2268 protein)

purified protein [1] = substrate: N[C@@H](CC(=O)O)C(=O)O; assay: purified protein; settings: amino donor, 10 mM 2-oxoglutarate, 20 µM PLP, 50 mM HEPES pH 7.5, 80°C
purified protein [2] = substrate: O=C(O)CC(=O)C(=O)O; assay: purified protein; type: biochemical, Thermococcus kodakarensis; settings: amino acceptor, 4 mM glutamate, 20 µM PLP, 50 mM HEPES pH 7.5, 80°C, substrate inhibition model, Ks1 described as dissociation constant of first substrate
[3] = substrate: N[C@@H](CCC(=O)O)C(=O)O; assay: initial velocity, HPLC after o-phthalaldehyde derivatization; type: biochemical, Thermococcus kodakarensis; settings: amino donor, 10 mM oxaloacetate, 20 µM PLP, 50 mM HEPES pH 7.5, 80°C
From the text: initial velocity, HPLC after o-phthalaldehyde derivatization on TK2268p (TK2268 protein)

[4] = substrate: O=C(O)CCC(=O)C(=O)O; assay: initial velocity, HPLC after o-phthalaldehyde derivatization; substrate inhibition fit; type: biochemical, Thermococcus kodakarensis; settings: amino acceptor, 10 mM Asp, 20 µM PLP, 50 mM HEPES pH 7.5, 80°C, substrate inhibition model, Ks1 described as dissociation constant of first substrate
From the text: as §1

Km (TK2268p (TK2268 protein); 4 mM glutamate): 13.2 ± 1.2 mM
Molecule: O=C(O)CC(=O)C(=O)O [OAA, oxaloacetate]

Km (TK2268p (TK2268 protein); 10 mM Asp): 5.9 ± 1.6 mM
Molecule: O=C(O)CCC(=O)C(=O)O [2-OG, 2-oxoglutarate]

B1: TK2268p (TK2268 protein) (Thermococcus kodakarensis KOD1) (protein)
chain: MRYKKRKYFMAGRINILQRSKIRELFEKASKMENVISLGIGEPDFDTPEVIKEAAKRAIDEGYTHYTPNAGIPEFREAIAEYYKEFYNVDVDMNNIIVTAGAYEATYLAFESILEQGDDVIIPDPAFVCYVEDAKIAEAGIIRIPLREENKFRIDPDELLEAITKRTRMIVMNYPNNPTGAIMKKDVAKAIADIAQDYNIYILSDEPYEHFLYEGARHHPMIKYAPDNTILANSFSKTFAMTGWRLGFAIAPEQVIRDMIKLHAYVIGNVTSFIQIAGITALRDKRSWEAVERMRQVYDERRKLVLKYLNDMPHITPFRPKGAFYIWAKIDPELDMTSEDFAEWLLENAGVVVIPGTAFGRQGEGWIRISYATEKEKLIEAMERMKEALSKL
notes: full-length, C-terminal His6-tag, overexpressed homologously in T. kodakarensis, His GraviTrap and gel filtration
Km (purified protein [1]): 10.3 ± 0.5 mM | Vmax (purified protein [1]): 232 µmol/min/mg | kcat (purified protein [1]): 175 s⁻¹ | kcat/Km (purified protein [1]): 17000 M⁻¹ s⁻¹ | Km (purified protein [2]): 1.3 ± 0.1 mM | Vmax (purified protein [2]): 360 µmol/min/mg | kcat (purified protein [2]): 270 ± 16 s⁻¹ | kcat/Km (purified protein [2]): 208000 M⁻¹ s⁻¹ | Km [3]: 3.4 ± 0.3 mM | Vmax [3]: 443 µmol/min/mg | kcat [3]: 333 ± 12 s⁻¹ | kcat/Km [3]: 97800 M⁻¹ s⁻¹ | Km [4]: 38.8 ± 9.6 mM | Vmax [4]: 1040 ± 230 µmol/min/mg | kcat [4]: 781 ± 244 s⁻¹ | kcat/Km [4]: 20100 M⁻¹ s⁻¹
